In patent US20190194683A1 (WISCONSIN ALUMNI RESEARCH FOUNDATION, published 2019):

T1: α-SNAPRhg1LC1-279 (α-SNAPRhg1LC lacking the final 10 C-terminal residues) (Glycine max (soybean))
T1 construct: both say that the final 10 C-terminal residues are missing; also called α-SNAPRhg1LC1-280
T1 chain: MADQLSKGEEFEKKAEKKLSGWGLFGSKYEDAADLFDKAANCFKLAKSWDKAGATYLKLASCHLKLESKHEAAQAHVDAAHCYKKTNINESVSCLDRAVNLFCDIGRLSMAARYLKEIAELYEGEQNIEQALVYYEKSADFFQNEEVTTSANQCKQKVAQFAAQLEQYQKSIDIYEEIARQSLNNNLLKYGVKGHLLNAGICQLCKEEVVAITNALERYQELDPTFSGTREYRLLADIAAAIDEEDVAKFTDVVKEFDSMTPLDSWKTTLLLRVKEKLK

T2: α-SNAPRhg1WT1-279 (WT α-SNAP lacking the final 10 C-terminal residues) (Glycine max (soybean))
T2 construct: also called α-SNAP lacking the C-terminus
T2 chain: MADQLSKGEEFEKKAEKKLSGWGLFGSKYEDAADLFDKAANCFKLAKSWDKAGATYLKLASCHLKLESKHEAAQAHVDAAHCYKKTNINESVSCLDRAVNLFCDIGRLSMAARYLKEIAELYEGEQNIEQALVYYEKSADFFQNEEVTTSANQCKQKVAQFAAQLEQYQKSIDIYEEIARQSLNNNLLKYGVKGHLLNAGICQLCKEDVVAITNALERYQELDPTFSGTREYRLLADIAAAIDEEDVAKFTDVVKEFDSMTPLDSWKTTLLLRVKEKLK

T3: α-SNAPRhg1WT (wild-type α-SNAP encoded by Glyma.18G022500, Williams 82) (Glycine max (soybean))
T3 construct: also called WT α-SNAP; wild-type (WT) Rhg1 α-SNAP
T3 chain: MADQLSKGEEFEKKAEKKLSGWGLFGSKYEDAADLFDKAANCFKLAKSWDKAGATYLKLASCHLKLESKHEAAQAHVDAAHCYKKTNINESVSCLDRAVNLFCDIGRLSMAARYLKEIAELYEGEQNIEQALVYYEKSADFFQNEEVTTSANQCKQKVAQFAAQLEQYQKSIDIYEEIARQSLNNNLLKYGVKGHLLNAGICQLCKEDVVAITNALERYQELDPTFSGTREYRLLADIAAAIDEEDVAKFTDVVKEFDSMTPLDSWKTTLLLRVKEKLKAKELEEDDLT

T4: α-SNAPRhg1HC (high copy Rhg1 resistance-type α-SNAP, Glyma.18G022500 Fayette) (Glycine max (soybean))
T4 construct: Recombinant protein, His-SUMO tag cleaved off; also called high copy (HC) Rhg1 α-SNAP
T4 chain: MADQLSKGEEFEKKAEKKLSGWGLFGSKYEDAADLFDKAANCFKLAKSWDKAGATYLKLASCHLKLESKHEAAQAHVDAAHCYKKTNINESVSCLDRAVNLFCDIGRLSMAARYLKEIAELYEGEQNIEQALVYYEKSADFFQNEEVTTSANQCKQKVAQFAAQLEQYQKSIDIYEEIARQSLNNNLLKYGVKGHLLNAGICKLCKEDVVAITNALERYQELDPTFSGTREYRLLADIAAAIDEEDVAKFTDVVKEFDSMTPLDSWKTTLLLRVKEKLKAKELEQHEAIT

T5: α-SNAPRhg1LC (low copy Rhg1 resistance-type α-SNAP, Glyma.18G022500 Peking) (Glycine max (soybean))
T5 construct: Recombinant protein, His-SUMO tag cleaved off; also called low-copy (LC) Rhg1 α-SNAP
T5 chain: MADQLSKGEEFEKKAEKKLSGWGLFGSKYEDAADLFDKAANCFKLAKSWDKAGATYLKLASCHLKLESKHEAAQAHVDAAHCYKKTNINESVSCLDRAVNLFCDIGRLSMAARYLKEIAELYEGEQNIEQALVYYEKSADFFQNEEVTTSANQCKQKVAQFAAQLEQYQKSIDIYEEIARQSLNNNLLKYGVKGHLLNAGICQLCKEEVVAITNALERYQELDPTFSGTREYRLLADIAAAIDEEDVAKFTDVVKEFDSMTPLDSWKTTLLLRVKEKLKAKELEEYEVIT


How the values were obtained:
[1] = biological target: T1, α-SNAPRhg1LC1-279 (α-SNAPRhg1LC lacking …); experiment: in vitro binding
[2] = biological target: T2, α-SNAPRhg1WT1-279 (WT α-SNAP lacking …); experiment: in vitro binding of recombinant NSF to tube-adsorbed α-SNAP, silver-stained SDS-PAGE
Experimental: To verify that NSFRAN07/α-SNAP binding is dependent upon NSF-binding patches at the α-SNAP C-terminus, NSFRAN07 binding to an otherwise WT α-SNAP lacking the final 10 C-terminal residues (α-SNAPRhg1WT₁₋₂₇₉) was determined. Binding of NSFCh07WT or NSFRAN07 binding with α-SNAP Rhg1WT₁₋₂₇₉ was disrupted, similar to the no α-SNAP binding controls (FIG. 10C).
(§1) In vitro NSF binding assays were performed essentially as described in Barnard et. al. (1997) J Cell Biol 139(4): 875-883; and Bayless et al. (2016), Proc Natl Acad Sci USA 113(47): E7375-E7382; Briefly, 20 μg of each respective recombinant α-SNAP protein was added to the bottom of a 1.5-mL polypropylene tube and incubated at 25° C. for 20 min. Unbound α-SNAP proteins were then washed by adding α-SNAP wash buffer [25 mM Tris, pH 7.4, 50 mM KCl, 1 mM DTT, 0.4 mg/mL bovine serum albumin (BSA)]. After removal of wash buffer, 20 μg of recombinant NSF (1 μg/μL in NSF binding buffer), was then immediately added and incubated on ice for 10 min. The solution was then removed, and samples were immediately washed 2× with NBB to remove any unbound NSF. Samples were then boiled in 1×SDS loading buffer and separated on a 10% Bis-Tris SDS-PAGE, and silver-stained using the ProteoSilver Kit (Sigma-Aldrich), according to the manufacturer directions. The percentage of NSF bound by α-SNAP was then calculated using densitometric analysis with ImageJ.

[3] = biological target: T3, α-SNAPRhg1WT (wild-type α-SNAP encoded …); experiment: in vitro binding: α-SNAP adsorbed to tube, recombinant NSF added, bound NSF on silver-stained SDS-PAGE, ImageJ densitometry
Description: (§2) All Rhg1-containing HG type test and NAM lines contained NSFRAN07, and α-SNAPRhg1HC and α-SNAPRhg1LC are polymorphic at C-terminal residues that bind and stimulate NSF. Therefore, the impact of NSFRAN07 polymorphisms on binding to both Rhg1 resistance-type α-SNAPs and α-SNAPRhg1WT was investigated. Recombinant NSFRAN07, NSFCh07 and Rhg1 α-SNAP proteins were produced for in vitro binding studies as previously described in (Barnard et al., 1997, J Cell Biol 139, 875-883; (Bayless et al. 2016, Proc. Natl. Acad. Sci. USA 113, E7375-E7382). NSFRAN07 and NSFCh07 binding was quantified using ImageJ densitometry across three independent experiments (FIG. 3D). NSFCh07 binding to α-SNAPRhg1HC and α-SNAPRhg1LC was reduced compared to α-SNAPRhg1WT (FIG. 3C). In contrast, NSFRAN07 binding to α-SNAPRhg1HC or α-SNAPRhg1LC was similar to α-SNAPRhg1WT binding, and was increased ˜30% relative to NSFCh07.
as §1

[4] = biological target: T4, α-SNAPRhg1HC (high copy Rhg1 …); experiment: in vitro binding, densitometry of silver-stained SDS-PAGE across three independent experiments; reference NSFCh07 on the same α-SNAP
Description: as §2
(§3) In vitro NSF binding assays were performed essentially as described in Barnard et. al. (1997) J Cell Biol 139(4): 875-883; and Bayless et al. (2016), Proc Natl Acad Sci USA 113(47): E7375-E7382; Briefly, 20 μg of each respective recombinant α-SNAP protein was added to the bottom of a 1.5-mL polypropylene tube and incubated at 25° C. for 20 min. […] The percentage of NSF bound by α-SNAP was then calculated using densitometric analysis with ImageJ.

[5] = biological target: T5, α-SNAPRhg1LC (low copy Rhg1 …); experiment: as above
Description: as §2, §3

[6] = biological target: T4, α-SNAPRhg1HC (high copy Rhg1 …); experiment: in vitro binding: α-SNAP adsorbed to tube, recombinant NSF added, bound NSF on silver-stained SDS-PAGE, ImageJ densitometry
Description: as §2, §1

[7] = biological target: T5, α-SNAPRhg1LC (low copy Rhg1 …); experiment: as above
Description: as §2, §1

Row | binding result [1] | binding result [2] | binding result [3] | increase of binding relative to NSFCh07 [4] [%] | increase of binding relative to NSFCh07 [5] [%] | binding result [6] | binding result [7] | Binder
1 | no binding | no binding (tested: 20 µg NSF (1 µg/µL)) | binds | ~30 | ~30 |  |  | NSFRAN07 (Rhg1-associated NSF from chromosome 07, allele of Glyma.07G195900) (enzyme, Recombinant protein from E. coli, ORF cloned from Forrest (Rhg1LC) cDNA; Differs from NSFCh07 by R4Q, N21Y, S25N, insertion 116F and M181I; also called Glyma.07G195900 RAN07) MASQFGLSSSSSSASSMRVTYTPANDLALTNLAFCSPSDLRNFAVPGHNNLYLAAVADSFVLSLSAHDTIGSGQIALNAVQRRCAKVSSGDSVQVSRFVPPEDFNLALLTLELEFFVKKGSKSEQIDAVLLAKQLRKRFMNQVMTVGQKVLFEYHGNNYSFTVSNAAVEGQEKSNSLERGIISDDTYIVFETSRDSGIKIVNQREGATSNIFKQKEFNLQSLGIGGLSAEFADIFRRAFASRVFPPHVTSKLGIKHVKGMLLYGPPGTGKTLMARQIGKILNGKEPKIVNGPEVLSKFVGETEKNVRDLFADAEQDQRTRGDESDLHVIIFDEIDAICKSRGSTRDGTGVHDSIVNQLLTKIDGVESLNNVLLIGMTNRKDMLDEALLRPGRLEVQVEISLPDENGRLQILQIHTNKMKENSFLAADVNLQELAARTKNYSGAELEGVVKSAVSYALNRQLSLEDLTKPVEEENIKVTMDDFLNALHEVTSAFGASTDDLERCRLHGMVECGDRHKHIYQRAMLLVEQVKVSKGSPLVTCLLEGSRGSGKTALSATVGIDSDFPYVKIVSAESMIGLHESTKCAQIIKVFEDAYKSPLSVIILDDIERLLEYVPIGPRFSNLISQTLLVLLKRLPPKGKKLMVIGTTSELDFLESIGFCDTFSVTYHIPTLNTTDAKKVLEQLNVFTDEDIDSAAEALNDMPIRKLYMLIEMAAQGEHGGSAEAIFSGKEKISIAHFYDCLQDVVRL
2 | no binding | no binding (tested: 20 µg NSF (1 µg/µL)) | binds |  |  | binds | binds | NSFCh07 (wild-type NSF encoded by Glyma.07G195900, soybean reference genome Williams 82) (enzyme, Recombinant protein from E. coli; also called NSFCh07WT; NSF-WT) MASRFGLSSSSSSASSMRVTNTPASDLALTNLAFCSPSDLRNFAVPGHNNLYLAAVADSFVLSLSAHDTIGSGQIALNAVQRRCAKVSSGDSVQVSRFVPPEDFNLALLTLELEFVKKGSKSEQIDAVLLAKQLRKRFMNQVMTVGQKVLFEYHGNNYSFTVSNAAVEGQEKSNSLERGMISDDTYIVFETSRDSGIKIVNQREGATSNIFKQKEFNLQSLGIGGLSAEFADIFRRAFASRVFPPHVTSKLGIKHVKGMLLYGPPGTGKTLMARQIGKILNGKEPKIVNGPEVLSKFVGETEKNVRDLFADAEQDQRTRGDESDLHVIIFDEIDAICKSRGSTRDGTGVHDSIVNQLLTKIDGVESLNNVLLIGMTNRKDMLDEALLRPGRLEVQVEISLPDENGRLQILQIHTNKMKENSFLAADVNLQELAARTKNYSGAELEGVVKSAVSYALNRQLSLEDLTKPVEEENIKVTMDDFLNALHEVTSAFGASTDDLERCRLHGMVECGDRHKHIYQRAMLLVEQVKVSKGSPLVTCLLEGSRGSGKTALSATVGIDSDFPYVKIVSAESMIGLHESTKCAQIIKVFEDAYKSPLSVIILDDIERLLEYVPIGPRFSNLISQTLLVLLKRLPPKGKKLMVIGTTSELDFLESIGFCDTFSVTYHIPTLNTTDAKKVLEQLNVFTDEDIDSAAEALNDMPIRKLYMLIEMAAQGEHGGSAEAIFSGKEKISIAHFYDCLQDVVRL
